Patent US20030157688A1 (Scripps Research, published 2003)

T1: wild-type adenovirus type 5 (Ad5) fiber protein (human adenovirus type 5, UniProt P11818 1-581)
T1 construct: also called type 5 fiber protein; recombinant Ad5 fiber
T1 sequence: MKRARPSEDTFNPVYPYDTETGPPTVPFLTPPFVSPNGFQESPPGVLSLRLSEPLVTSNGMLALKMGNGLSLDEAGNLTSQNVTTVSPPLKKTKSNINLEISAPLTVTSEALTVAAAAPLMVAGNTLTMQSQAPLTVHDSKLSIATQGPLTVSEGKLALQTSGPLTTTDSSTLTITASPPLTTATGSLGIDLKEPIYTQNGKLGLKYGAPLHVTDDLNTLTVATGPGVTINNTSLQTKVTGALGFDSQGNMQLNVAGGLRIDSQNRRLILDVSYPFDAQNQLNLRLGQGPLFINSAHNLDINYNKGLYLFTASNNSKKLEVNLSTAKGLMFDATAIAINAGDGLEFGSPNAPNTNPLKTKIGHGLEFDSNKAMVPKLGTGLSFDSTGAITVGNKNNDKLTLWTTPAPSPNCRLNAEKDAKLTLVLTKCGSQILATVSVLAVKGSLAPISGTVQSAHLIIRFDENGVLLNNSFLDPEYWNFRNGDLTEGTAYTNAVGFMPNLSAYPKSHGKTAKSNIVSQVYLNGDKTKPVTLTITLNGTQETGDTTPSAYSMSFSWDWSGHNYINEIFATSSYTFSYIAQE

B1: chimeric 5T3H fiber protein (Ad5 fiber tail and shaft with the Ad3 fiber knob) (other)
chain: MKRARPSEDTFNPVYPYDTETGPPTVPFLTPPFVSPNGFQESPPGVLSLRLSEPLVTSNGMLALKMGNGLSLDEAGNLTSQNVTTVSPPLKKTKSNINLEISAPLTVTSEALTVAAAAPLMVAGNTLTMQSQAPLTVHDSKLSIATQGPLTVSEGKLALQTSGPLTTTDSSTLTITASPPLTTATGSLGIDLKEPIYTQNGKLGLKYGAPLHVTDDLNTLTVATGPGVTINNTSLQTKVTGALGFDSQGNMQLNVAGGLRIDSQNRRLILDVSYPFDAQNQLNLRLGQGPLFINSAHNLDINYNKGLYLFTASNNSKKLEVNLSTAKGLMFDATAIAINAGDGLEFGSPNAPNTNPLKTKIGHGLEFDSNKAMVPKLGTGLSFDSTGAITVGNKNNDKLTLWTGPKPEANCIIEYGKQNPDSKLTLILVKNGGIVNGYVTLMGASDYVNTLFKNKNVSINVELYFDATGHILPDSSSLKTDLELKYKQTADFSARGFMPSTTAYPFVLPNAGTHNENYIFGQCYYKASDGALFPLEVTVMLNKRLPDSRTSYVMTFLWSLNAGLAPETTQATLITSPFTFSYIREDD
B2: Ad5 penton base protein (in the capsid of Ad5.βgal.ΔF / Ad5 vector particles) (other)
chain: MRRAAMYEEGPPPSYESVVSAAPVAAALGSPFDAPLDPPFVPPRYLRPTGGRNSIRYSELAPLFDTTRVYLVDNKSTDVASLNYQNDHSNFLTTVIQNNDYSPGEASTQTINLDDRSHWGGDLKTILHTNMPNVNEFMFTNKFKARVMVSRLPTKDNQVELKYEWVEFTLPEGNYSETMTIDLMNNAIVEHYLKVGRQNGVLESDIGVKFDTRNFRLGFDPVTGLVMPGVYTNEAFHPDIILLPGCGVDFTHSRLSNLLGIRKRQPFQEGFRITYDDLEGGNIPALLDVDAYQASLKDDTEQGGGGAGGSNSSGSGAEENSNAAAAAMQPVEDMNDHAIRGDTFATRAEEKRAEAEAAAEAAAPAAQPEVEKPQKKPVIKPLTEDSKKRSYNLISNDSTFTQYRSWYLAYNYGDPQTGIRSWTLLCTPDVTCGSEQVYWSLPDMMQDPVTFRSTRQISNFPVVGAELLPVHSKSFYNDQAVYSQLIRQFTSLTHVFNRFPENQILARPPAPTITTVSENVPALTDHGTLPLRNSIGGVQRVTITDARRRTCPYVYKALGIVSPRVLSSRTF
notes: The assays used whole virions; also called fiberless adenovector (penton base at the vertices)

Columns and labels:
[1] = target: Ad3 receptor; assay: cell-based or functional assay
[2] = target: T1, wild-type adenovirus type 5 (Ad5) fiber …; assay: Western blot of particles purified from 633 cells
[3] = target: B1; assay: fiber-deleted vector grown in 644 cells

Row | Binder | infection of EBV-transformed lymphoblastoid cell lines (X-gal stained cells) [1] [fold] | binding result [2] | binding result [3]
1 | B1 | ≥ 10 |  | 
2 | B2 |  | binds | binds
